Measurements from patent publication US20180155451A1 (published 2018).

B1: GpH7-B3 variant E269_20W/GpL16-k0 (antibody, human IgG1, kappa)
heavy: not shown
light: DIVMTQSPLSLPVTPGEPASISCQASESLVHSNRNTYLHWYLQKPGQSPQLLIYKVSNRFSGVPDRFSGSGSGTDFTLKISRVEAEDVGVYYCSQNTHVPPTFGQGTKVEIERTVAAPSVFIFPPSDEQLKSGTASVVCLLNNFYPREAKVQWKVDNALQSGNSQESVTEQDSKDSTYSLSSTLTLSKADYEKHKVYACEVTHQGLSSPVTKSFNRGEC
notes: homodimerized; also called Ho Ab E269_20W
B2: GpH7-B3 variant E333_02A/GpL16-k0 (antibody, human IgG1, kappa)
heavy: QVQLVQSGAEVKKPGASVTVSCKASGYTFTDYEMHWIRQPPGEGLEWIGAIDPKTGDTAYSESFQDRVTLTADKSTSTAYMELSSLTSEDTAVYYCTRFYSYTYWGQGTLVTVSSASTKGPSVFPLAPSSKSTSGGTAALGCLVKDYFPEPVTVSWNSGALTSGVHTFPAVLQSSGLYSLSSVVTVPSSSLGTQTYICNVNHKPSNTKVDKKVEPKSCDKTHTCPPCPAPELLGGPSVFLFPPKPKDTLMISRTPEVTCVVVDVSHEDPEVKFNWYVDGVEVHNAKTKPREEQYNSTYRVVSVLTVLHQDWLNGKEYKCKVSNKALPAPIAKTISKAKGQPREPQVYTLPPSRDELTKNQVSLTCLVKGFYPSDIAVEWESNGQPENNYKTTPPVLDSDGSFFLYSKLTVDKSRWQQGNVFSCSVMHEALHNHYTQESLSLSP
light: B1 light
notes: homodimerized; also called Ho Ab E333_02A
B3: GpH7-B3 variant H268_05P/GpL16-k0 (antibody, human IgG1, kappa)
heavy: not shown
light: B1 light
notes: homodimerized; also called Ho Ab H268_05P
B4: GpH7-B3 variant E333_14T/GpL16-k0 (antibody, human IgG1, kappa)
heavy: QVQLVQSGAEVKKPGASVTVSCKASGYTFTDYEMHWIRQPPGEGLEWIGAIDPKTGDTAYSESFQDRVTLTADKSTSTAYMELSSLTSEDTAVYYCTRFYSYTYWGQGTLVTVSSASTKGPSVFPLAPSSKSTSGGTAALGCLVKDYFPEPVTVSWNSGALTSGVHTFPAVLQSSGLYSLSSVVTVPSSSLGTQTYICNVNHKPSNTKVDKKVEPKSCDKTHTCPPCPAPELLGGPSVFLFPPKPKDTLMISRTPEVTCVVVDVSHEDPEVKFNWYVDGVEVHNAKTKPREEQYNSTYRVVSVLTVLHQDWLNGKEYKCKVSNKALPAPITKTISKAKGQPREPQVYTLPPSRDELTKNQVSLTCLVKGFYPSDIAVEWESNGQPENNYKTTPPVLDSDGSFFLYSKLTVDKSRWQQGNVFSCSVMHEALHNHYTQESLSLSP
light: B1 light
notes: homodimerized; also called Ho Ab E333_14T
B5: GpH7-B3 variant H268_02A/GpL16-k0 (antibody, human IgG1, kappa)
heavy: not shown
light: B1 light
notes: homodimerized; also called Ho Ab H268_02A
B6: GpH7-B3 variant E333_03V/GpL16-k0 (antibody, human IgG1, kappa)
heavy: not shown
light: B1 light
notes: homodimerized; also called Ho Ab E333_03V
B7: GpH7-B3 variant H268_08L/GpL16-k0 (antibody, human IgG1, kappa)
heavy: not shown
light: B1 light
notes: homodimerized; also called Ho Ab H268_08L
B8: GpH7-B3 variant E333_06M/GpL16-k0 (antibody, human IgG1, kappa)
heavy: not shown
light: B1 light
notes: homodimerized; also called Ho Ab E333_06M
B9: GpH7-B3 variant E333_15Y/GpL16-k0 (antibody, human IgG1, kappa)
heavy: not shown
light: B1 light
notes: homodimerized; also called Ho Ab E333_15Y
B10: GpH7-B3 variant H268_12R/GpL16-k0 (antibody, human IgG1, kappa)
heavy: not shown
light: B1 light
notes: homodimerized; also called Ho Ab H268_12R
B11: GpH7-B3 variant E333_09D/GpL16-k0 (antibody, human IgG1, kappa)
heavy: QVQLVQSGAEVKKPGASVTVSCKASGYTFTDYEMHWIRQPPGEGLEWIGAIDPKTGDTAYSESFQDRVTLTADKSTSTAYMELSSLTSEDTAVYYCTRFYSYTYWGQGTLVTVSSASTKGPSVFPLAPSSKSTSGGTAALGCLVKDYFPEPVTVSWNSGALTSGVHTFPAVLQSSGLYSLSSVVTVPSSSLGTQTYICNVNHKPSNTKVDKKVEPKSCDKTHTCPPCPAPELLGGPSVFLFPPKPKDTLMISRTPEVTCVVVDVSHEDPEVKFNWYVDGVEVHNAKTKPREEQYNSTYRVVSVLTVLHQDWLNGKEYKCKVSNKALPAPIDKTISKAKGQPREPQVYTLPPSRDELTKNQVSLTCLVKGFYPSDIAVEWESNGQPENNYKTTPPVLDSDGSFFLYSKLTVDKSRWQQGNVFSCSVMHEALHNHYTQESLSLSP
light: B1 light
notes: homodimerized; also called Ho Ab E333_09D
B12: GpH7-B3 variant G236_02A/GpL16-k0 (antibody, human IgG1, kappa)
heavy: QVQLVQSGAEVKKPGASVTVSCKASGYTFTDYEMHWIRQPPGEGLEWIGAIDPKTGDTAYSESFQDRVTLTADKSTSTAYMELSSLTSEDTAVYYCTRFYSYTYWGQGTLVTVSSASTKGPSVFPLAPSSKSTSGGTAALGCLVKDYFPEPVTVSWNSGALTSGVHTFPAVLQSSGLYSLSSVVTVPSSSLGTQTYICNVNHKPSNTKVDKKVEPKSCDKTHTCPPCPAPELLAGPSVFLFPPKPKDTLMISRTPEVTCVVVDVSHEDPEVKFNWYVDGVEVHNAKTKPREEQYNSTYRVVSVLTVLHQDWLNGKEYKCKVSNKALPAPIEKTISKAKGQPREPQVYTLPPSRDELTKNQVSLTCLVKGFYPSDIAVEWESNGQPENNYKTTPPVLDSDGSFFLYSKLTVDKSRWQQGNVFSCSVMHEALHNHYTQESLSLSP
light: B1 light
notes: homodimerized; also called Ho Ab G236_02A
B13: GpH7-B3 variant E333_07I/GpL16-k0 (antibody, human IgG1, kappa)
heavy: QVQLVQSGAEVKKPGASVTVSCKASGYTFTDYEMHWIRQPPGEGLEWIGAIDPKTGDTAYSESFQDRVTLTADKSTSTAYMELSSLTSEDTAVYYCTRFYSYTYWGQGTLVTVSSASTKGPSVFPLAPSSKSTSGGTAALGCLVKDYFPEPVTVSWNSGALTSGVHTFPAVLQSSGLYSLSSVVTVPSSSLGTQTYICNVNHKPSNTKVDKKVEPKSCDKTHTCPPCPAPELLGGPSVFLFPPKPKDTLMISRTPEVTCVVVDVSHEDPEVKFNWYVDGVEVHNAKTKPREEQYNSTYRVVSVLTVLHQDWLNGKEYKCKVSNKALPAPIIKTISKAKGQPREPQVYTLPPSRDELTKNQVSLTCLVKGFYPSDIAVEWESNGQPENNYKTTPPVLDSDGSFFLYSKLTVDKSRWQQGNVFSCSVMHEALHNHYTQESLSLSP
light: B1 light
notes: homodimerized; also called Ho Ab E333_07I
B14: GpH7-B3 variant E333_12R/GpL16-k0 (antibody, human IgG1, kappa)
heavy: not shown
light: B1 light
notes: homodimerized; also called Ho Ab E333_12R
B15: GpH7-B3 variant H268_07I/GpL16-k0 (antibody, human IgG1, kappa)
heavy: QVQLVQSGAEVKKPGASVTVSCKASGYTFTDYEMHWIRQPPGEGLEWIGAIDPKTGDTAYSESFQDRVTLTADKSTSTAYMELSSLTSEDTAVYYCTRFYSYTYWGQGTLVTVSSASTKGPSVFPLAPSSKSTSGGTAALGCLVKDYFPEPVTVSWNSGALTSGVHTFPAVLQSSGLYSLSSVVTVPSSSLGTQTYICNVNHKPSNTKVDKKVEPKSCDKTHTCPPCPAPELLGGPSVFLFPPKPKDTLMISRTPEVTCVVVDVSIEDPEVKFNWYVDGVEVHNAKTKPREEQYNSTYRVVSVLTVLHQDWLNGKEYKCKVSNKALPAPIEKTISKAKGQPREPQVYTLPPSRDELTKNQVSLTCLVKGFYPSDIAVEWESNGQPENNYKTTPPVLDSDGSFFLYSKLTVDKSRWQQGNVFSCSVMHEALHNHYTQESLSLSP
light: B1 light
notes: homodimerized; also called Ho Ab H268_07I
B16: GpH7-B3 variant E333_01G/GpL16-k0 (antibody, human IgG1, kappa)
heavy: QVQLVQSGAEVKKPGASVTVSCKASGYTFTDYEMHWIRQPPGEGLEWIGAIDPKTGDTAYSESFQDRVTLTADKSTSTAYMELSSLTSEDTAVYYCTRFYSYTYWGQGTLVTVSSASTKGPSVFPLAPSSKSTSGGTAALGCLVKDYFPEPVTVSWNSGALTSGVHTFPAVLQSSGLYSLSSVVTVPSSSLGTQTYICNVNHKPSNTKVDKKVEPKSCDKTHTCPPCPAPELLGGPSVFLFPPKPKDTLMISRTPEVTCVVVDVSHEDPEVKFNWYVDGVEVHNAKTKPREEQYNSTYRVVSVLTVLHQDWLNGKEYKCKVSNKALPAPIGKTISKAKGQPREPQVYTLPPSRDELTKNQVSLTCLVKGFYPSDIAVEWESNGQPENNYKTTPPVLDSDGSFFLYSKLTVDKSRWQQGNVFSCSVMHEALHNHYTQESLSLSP
light: B1 light
notes: homodimerized; also called Ho Ab E333_01G
B17: GpH7-B3 variant G236_20W/GpL16-k0 (antibody, human IgG1, kappa)
heavy: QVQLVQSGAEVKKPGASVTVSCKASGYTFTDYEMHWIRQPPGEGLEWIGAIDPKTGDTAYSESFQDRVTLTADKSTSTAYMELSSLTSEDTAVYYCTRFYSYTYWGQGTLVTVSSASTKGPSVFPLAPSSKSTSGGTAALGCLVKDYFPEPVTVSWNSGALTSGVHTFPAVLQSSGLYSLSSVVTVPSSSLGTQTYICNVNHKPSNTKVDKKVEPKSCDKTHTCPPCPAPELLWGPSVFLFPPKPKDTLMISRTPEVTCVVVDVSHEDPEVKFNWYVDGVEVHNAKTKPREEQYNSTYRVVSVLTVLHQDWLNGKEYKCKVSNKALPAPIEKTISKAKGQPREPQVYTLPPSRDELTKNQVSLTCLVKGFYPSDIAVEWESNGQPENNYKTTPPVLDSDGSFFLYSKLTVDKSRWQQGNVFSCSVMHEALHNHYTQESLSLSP
light: B1 light
notes: homodimerized; also called Ho Ab G236_20W; GpH7-B3-03-20W/GpL16-k0
B18: GpH7-B3 variant E333_16H/GpL16-k0 (antibody, human IgG1, kappa)
heavy: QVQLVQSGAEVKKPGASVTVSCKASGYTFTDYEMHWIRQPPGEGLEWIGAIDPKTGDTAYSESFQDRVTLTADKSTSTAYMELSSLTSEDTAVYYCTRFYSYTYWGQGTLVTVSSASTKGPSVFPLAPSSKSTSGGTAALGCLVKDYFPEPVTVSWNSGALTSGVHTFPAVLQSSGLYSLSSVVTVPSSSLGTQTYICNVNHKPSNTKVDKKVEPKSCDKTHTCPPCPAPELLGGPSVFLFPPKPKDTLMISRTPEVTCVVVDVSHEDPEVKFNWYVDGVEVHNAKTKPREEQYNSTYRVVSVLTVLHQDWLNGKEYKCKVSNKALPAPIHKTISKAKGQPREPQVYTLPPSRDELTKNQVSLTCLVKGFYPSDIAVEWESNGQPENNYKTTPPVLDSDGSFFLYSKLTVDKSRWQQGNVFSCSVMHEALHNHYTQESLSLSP
light: B1 light
notes: homodimerized; also called Ho Ab E333_16H
B19: GpH7-B3 variant E333_11K/GpL16-k0 (antibody, human IgG1, kappa)
heavy: not shown
light: B1 light
notes: homodimerized; also called Ho Ab E333_11K
B20: GpH7-B3 variant E333_05P/GpL16-k0 (antibody, human IgG1, kappa)
heavy: not shown
light: B1 light
notes: homodimerized; also called Ho Ab E333_05P
B21: GpH7-B3 variant E333_08L/GpL16-k0 (antibody, human IgG1, kappa)
heavy: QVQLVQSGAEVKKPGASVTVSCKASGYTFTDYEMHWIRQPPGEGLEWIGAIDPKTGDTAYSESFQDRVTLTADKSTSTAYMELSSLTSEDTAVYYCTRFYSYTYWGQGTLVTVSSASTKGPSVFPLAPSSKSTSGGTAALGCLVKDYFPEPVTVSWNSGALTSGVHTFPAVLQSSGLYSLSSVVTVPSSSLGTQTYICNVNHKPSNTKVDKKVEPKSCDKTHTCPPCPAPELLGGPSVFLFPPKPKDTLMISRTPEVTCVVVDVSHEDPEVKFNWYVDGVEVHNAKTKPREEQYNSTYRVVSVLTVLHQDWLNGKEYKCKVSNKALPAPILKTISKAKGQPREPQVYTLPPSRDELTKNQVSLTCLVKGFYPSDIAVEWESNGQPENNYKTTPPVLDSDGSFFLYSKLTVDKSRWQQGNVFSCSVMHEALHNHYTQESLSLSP
light: B1 light
notes: homodimerized; also called Ho Ab E333_08L
B22: GpH7-B3 variant E333_04F/GpL16-k0 (antibody, human IgG1, kappa)
heavy: not shown
light: B1 light
notes: homodimerized; also called Ho Ab E333_04F
B23: GpH7-B3 variant E333_13S/GpL16-k0 (antibody, human IgG1, kappa)
heavy: not shown
light: B1 light
notes: homodimerized; also called Ho Ab E333_13S

biological target: T1, FcγRIa (human, UniProt P12314 16-292); test: SPR; vs GpH7-B3/GpL16-k0=100
T1 construct: extracellular domain; also called FcgRI; CD64
T1 sequence (P12314 16-292): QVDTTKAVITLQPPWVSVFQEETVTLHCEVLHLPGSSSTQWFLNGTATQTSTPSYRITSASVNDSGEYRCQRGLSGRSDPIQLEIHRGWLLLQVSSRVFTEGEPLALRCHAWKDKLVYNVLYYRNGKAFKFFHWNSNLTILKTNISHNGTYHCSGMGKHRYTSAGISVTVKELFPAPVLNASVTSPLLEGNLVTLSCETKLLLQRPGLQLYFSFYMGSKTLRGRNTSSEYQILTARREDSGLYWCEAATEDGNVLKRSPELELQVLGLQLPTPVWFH

| Ho/Con_1a | Binder |
| --- | --- |
| 98.9 % of control | B1 |
| 96.2 % of control | B2 |
| 108 % of control | B3 |
| 98.7 % of control | B4 |
| 106 % of control | B5 |
| 98.4 % of control | B6 |
| 105 % of control | B7 |
| 99.5 % of control | B8 |
| 100 % of control | B9 |
| 105 % of control | B10 |
| 103 % of control | B11 |
| 92.4 % of control | B12 |
| 99.9 % of control | B13 |
| 94.2 % of control | B14 |
| 106 % of control | B15 |
| 100 % of control | B16 |
| 104 % of control | B17 |
| 99.1 % of control | B18 |
| 95.8 % of control | B19 |
| 99.2 % of control | B20 |
| 99 % of control | B21 |
| 98.4 % of control | B22 |
| 101 % of control | B23 |
